± gives the standard deviation of the averaged measurements.
Assay: total protein half-life in vivo (active degradation + dilution); higher = more stable protein
[1] = E. coli NCM3722 delta-clpP delta-lon delta-hslV, growth: N-lim chemostat, doubling time 6 h
[2] = E. coli NCM3722 delta-clpP, growth: N-lim chemostat, doubling time 6 h
[3] = E. coli NCM3722 delta-hslV, growth: N-lim chemostat, doubling time 6 h
[4] = E. coli NCM3722 delta-lon, growth: N-lim chemostat, doubling time 6 h
[5] = E. coli NCM3722 delta-smpB, growth: N-lim chemostat, doubling time 6 h
[6] = wild type E. coli NCM3722, growth: C-lim chemostat, doubling time 3 h
[7] = wild type E. coli NCM3722, growth: C-lim chemostat, doubling time 6 h
[8] = wild type E. coli NCM3722, growth: C-lim chemostat, doubling time 12 h
[9] = wild type E. coli NCM3722, growth: N-lim chemostat, doubling time 6 h
[10] = wild type E. coli NCM3722, growth: P-lim chemostat, doubling time 6 h
[11] = wild type E. coli NCM3722, growth: P-lim chemostat, doubling time 12 h
[12] = wild type E. coli NCM3722, growth: N-lim chemostat, doubling time 12 h

Sequence | total protein half-life in vivo [1] [h] | total protein half-life in vivo [2] [h] | total protein half-life in vivo [3] [h] | total protein half-life in vivo [4] [h] | total protein half-life in vivo [5] [h] | total protein half-life in vivo [6] [h] | total protein half-life in vivo [7] [h] | total protein half-life in vivo [8] [h] | total protein half-life in vivo [9] [h] | total protein half-life in vivo [10] [h] | total protein half-life in vivo [11] [h] | total protein half-life in vivo [12] [h]
MQNNEQTEYKTVRGLTRGLMLLNMLNKLDGGASVGLLAELSGLHRTTVRRLLETLQEEGYVRRSPSDDSFRLTIKVRQLSEGFRDEQWISALAAPLLGDLLREVVWPTDVSTLDVDAMVVRETTHRFSRLSFHRAMVGRRLPLLKTASGLTWLAFCPEQDRKELIEMLASRPGDDYQLAREPLKLEAILARARKEGYGQNYRGWDQEEKIASIAVPLRSEQRVIGCLNLVYMASAMTIEQAAEKHLPALQRVAKQIEEGVESQAILVAGRRSGMHLR | 6.32 ± 0.84 | 2.12 | 1.85 ± 0.042 | 2.59 | 1.26 | 1.55 ± 0.24 | 2.35 ± 0.052 | 3.26 ± 1.1 | 1.85 ± 0.27 | 1.72 ± 0.43 | 2.94 ± 0.64 | 
MRFSHRLFLLLILLLTGAPILAQEPSDVAKNVRMMVSGIVSYTRWPALSGPPKLCIFSSSRFSTALQENAATSLPYLPVIIHTQQEAMISGCNGFYFGNESPTFQMELTEQYPSKALLLIAEQNTECIIGSAFCLIIHNNDVRFAVNLDALSRSGVKVNPDVLMLARKKNDG | 3.28 ± 0.12 |  | 2.98 ± 0.17 |  | 3.1 |  | > 8 | 6.32 | 2.98 | 5 | 6.03 ± 0.098 | 4.75
MKPTSVIIMDTHPIIRMSIEVLLQKNSELQIVLKTDDYRITIDYLRTRPVDLIIMDIDLPGTDGFTFLKRIKQIQSTVKVLFLSSKSECFYAGRAIQAGANGFVSKCNDQNDIFHAVQMILSGYTFFPSETLNYIKSNKCSTNSSTVTVLSNREVTILRYLVSGLSNKEIADKLLLSNKTVSAHKSNIYGKLGLHSIVELIDYAKLYELI [P0AEL8] | 5.67 ± 0.072 |  |  |  |  |  |  |  |  |  |  | 
MNVNFFVTCIGDALKSRMARDSVLLLEKLGCRVNFPEKQGCCGQPAINSGYIKEAIPGMKNLIAALEDNDDPIISPAGSCTYAVKSYPTYLADEPEWASRAAKVAARMQDLTSFIVNKLGVVDVGASLQGRAVYHPSCSLARKLGVKDEPLTLLKNVRGLELLTFAEQDTCCGFGGTFSVKMAEISGEMVKEKVAHLMEVRPEYLIGADVSCLLNISGRLQREGQKVKVMHIAEVLMSR | 4.88 ± 0.35 | 2.8 | 3.22 ± 0.43 | 4.91 | 3.17 ± 0.06 | 3.05 ± 0.46 | 4.67 ± 0.46 | 8.01 ± 0.23 | 4.38 ± 0.39 | 4.49 | 8.05 ± 0.092 | 6.19 ± 1.3
MKRLKNELNALVNRGVDRHLRLAVTGLSRSGKTAFITAMVNQLLNIHAGARLPLLSAVREERLLGVKRIPQRDFGIPRFTYDEGLAQLYGDPPAWPTPTRGVSEIRLALRFKSNDSLLRHFKDTSTLYLEIVDYPGEWLLDLPMLAQDYLSWSRQMTGLLNGQRGEWSAKWRMMSEGLDPLAPADENRLADIAAAWTDYLHHCKEQGLHFIQPGRFVLPGDMAGAPALQFFPWPDVDTWGESKLAQADKHTNAGMLRERFNYYCEKVVKGFYKNHFLRFDRQIVLVDCLQPLNSGPQAFNDMRLALTQLMQSFHYGQRTLFRRLFSPVIDKLLFAATKADHVTIDQHANMVSLLQQLIQDAWQNAAFEGISMDCLGLASVQATTSGIIDVNGEKIPALRGNRLSDGAPLTVYPGEVPARLPGQAFWDKQGFQFEAFRPQVMDVDKPLPHIRLDAALEFLIGDKLR | 6.51 ± 0.91 | 6.53 ± 0.49 | 6.01 ± 0.15 | 5.93 ± 0.19 | 5.925 ± 0.037 | 2.94 ± 0.0058 | 6.04 ± 0.74 | 10.8 ± 3.9 | 5.52 ± 0.18 | 6.1 ± 0.29 | 12.2 ± 0.47 | 12.23 ± 0.11
MFNNILVVCVGNICRSPTAERLLQRYHPELKVESAGLGALVGKGADPTAISVAAEHQLSLEGHCARQISRRLCRNYDLILTMEKRHIERLCEMAPEMRGKVMLFGHWDNECEIPDPYRKSRETFAAVYTLLERSARQWAQALNAEQV [P0AAB2] | 5.46 |  |  | 1.13 |  |  |  |  |  |  |  | 
MEAIKGSDVNVPDAVFAWMLDGRGGVKPLENTDVIDEAHPCWLHLNYVHHDSAQWLATTPLLPNNVRDALAGESTRPRVSRLGEGTLITLRCINGSTDERPDQLVAMRVYMDGRLIVSTRQRKVLALDDVVSDLEEGTGPTDCGGWLVDVCDALTDHSSEFIEQLHDKIIDLEDNLLDQQIPPRGFLALLRKQLIVMRRYMAPQRDVYARLASERLPWMSDDQRRRMQDIADRLGRGLDEIDACIARTGVMADEIAQVMQENLARRTYTMSLMAMVFLPSTFLTGLFGVNLGGIPGGGWQFGFSIFCILLVVLIGGVALWLHRSKWL | 6.29 ± 0.86 | 5.99 ± 0.61 | 5.56 ± 0.95 | 6.34 ± 0.75 | 5.71 ± 0.2 | 3.06 ± 0.47 | 6.04 ± 0.35 | 11.5 ± 0.33 | 6.07 ± 0.2 | 5.31 ± 0.072 | 8.98 ± 0.42 | 11.9 ± 0.9
MATKLQDGNTPCLAATPSEPRPTVLVFDSGVGGLSVYDEIRHLLPDLHYIYAFDNVAFPYGEKSEAFIVERVVAIVTAVQERYPLALAVVACNTASTVSLPALREKFDFPVVGVVPAIKPAARLTANGIVGLLATRGTVKRSYTHELIARFANECQIEMLGSAEMVELAEAKLHGEDVSLDALKRILRPWLRMKEPPDTVVLGCTHFPLLQEELLQVLPEGTRLVDSGAAIARRTAWLLEHEAPDAKSADANIAFCMAMTPGAEQLLPVLQRYGFETLEKLAVLG | 5.25 ± 0.28 | 4.4 ± 0.08 | 4.32 ± 0.48 | 4.74 ± 0.2 | 4.44 ± 0.14 | 3.22 ± 0.32 | 5.49 ± 0.17 |  | 4.54 ± 0.11 | 6.21 ± 0.3 | 12.2 ± 0.2 | 7.85 ± 0.034
MSQQRPDRIKQMLHYLWQHRHLSTQQAMELFGYAEATVRRDFQYIVNQYPGMIRGHGCLDFDDSTDDKEYVFDVKRTLQSVAKREIAALARTMIKDGDCFFLDSGSTCLELAKCLADARVKVICNDIKIANELGCFPHVESYIIGGLIRPGYFSVGESLALEMINAFSVERAFISCDALSLETGITNATMFEVGVKTRIIQRSREVILMADHSKFDAVEPHAVATLSCIKTIISDSGLPETIAQRYQRAGCQLFLPHSIK | 6.15 ± 1.6 |  |  |  | 0.761 | 2 | 2.57 ± 0.049 | 3.04 ± 0.33 |  |  |  | 
